{
  "source": "ChEMBL document CHEMBL3232870",
  "about": "“Discovery of 3-(4-methanesulfonylphenoxy)-N-[1-(2-methoxy-ethoxymethyl)-1H-pyrazol-3-yl]-5-(3-methylpyridin-2-yl)-benzamide as a novel glucokinase activator (GKA) for the treatment of type 2 diabetes mellitus” (Bioorg Med Chem, 2014)",
  "proteins": {"B1": {"name": "Hexokinase-4 (Homo sapiens), P35557 (protein)", "chain": "MLDDRARMEAAKKEKVEQILAEFQLQEEDLKKVMRRMQKEMDRGLRLETHEEASVKMLPTYVRSTPEGSEVGDFLSLDLGGTNFRVMLVKVGEGEEGQWSVKTKHQMYSIPEDAMTGTAEMLFDYISECISDFLDKHQMKHKKLPLGFTFSFPVRHEDIDKGILLNWTKGFKASGAEGNNVVGLLRDAIKRRGDFEMDVVAMVNDTVATMISCYYEDHQCEVGMIVGTGCNACYMEEMQNVELVEGDEGRMCVNTEWGAFGDSGELDEFLLEYDRLVDESSANPGQQLYEKLIGGKYMGELVRLVLLRLVDENLLFHGEASEQLRTRGAFETRFVSQVESDTGDRKQIYNILSTLGLRPSTTDCDIVRRACESVSTRAAHMCSAGLAGVINRMRESRSEDVMRITVGVDGSVYKLHPSFKERFHASVRRLTPSCEITFIESEEGSGRGAALVSAVACKKACMLGQ"}},
  "substrate": "COCCOCn1ccc(NC(=O)c2cc(Oc3ccc(S(C)(=O)=O)cc3)cc(-c3ncccc3C)c2)n1",
  "experiment": "Activity of recombinant human pancreatic glucokinase assessed as glucose half-maximal activity",
  "data": [
    {"protein": "B1", "values": [
      {"measurement": "Vmax", "result": 150, "unit": "%"}
    ]}
  ]
}
